Assay results taken from US7534592 (Takeda / Millennium, dated 2009).

Biological target: the molecule itself
Test: analytical size-exclusion chromatography; self-association (homodimer)

B1: recombinant ACC2 catalytic domain (carboxyltransferase domain of human Acetyl-Coenzyme A Carboxylase 2, residues 1715-2483 of SEQ. ID No. 1) with a … (enzyme)
chain: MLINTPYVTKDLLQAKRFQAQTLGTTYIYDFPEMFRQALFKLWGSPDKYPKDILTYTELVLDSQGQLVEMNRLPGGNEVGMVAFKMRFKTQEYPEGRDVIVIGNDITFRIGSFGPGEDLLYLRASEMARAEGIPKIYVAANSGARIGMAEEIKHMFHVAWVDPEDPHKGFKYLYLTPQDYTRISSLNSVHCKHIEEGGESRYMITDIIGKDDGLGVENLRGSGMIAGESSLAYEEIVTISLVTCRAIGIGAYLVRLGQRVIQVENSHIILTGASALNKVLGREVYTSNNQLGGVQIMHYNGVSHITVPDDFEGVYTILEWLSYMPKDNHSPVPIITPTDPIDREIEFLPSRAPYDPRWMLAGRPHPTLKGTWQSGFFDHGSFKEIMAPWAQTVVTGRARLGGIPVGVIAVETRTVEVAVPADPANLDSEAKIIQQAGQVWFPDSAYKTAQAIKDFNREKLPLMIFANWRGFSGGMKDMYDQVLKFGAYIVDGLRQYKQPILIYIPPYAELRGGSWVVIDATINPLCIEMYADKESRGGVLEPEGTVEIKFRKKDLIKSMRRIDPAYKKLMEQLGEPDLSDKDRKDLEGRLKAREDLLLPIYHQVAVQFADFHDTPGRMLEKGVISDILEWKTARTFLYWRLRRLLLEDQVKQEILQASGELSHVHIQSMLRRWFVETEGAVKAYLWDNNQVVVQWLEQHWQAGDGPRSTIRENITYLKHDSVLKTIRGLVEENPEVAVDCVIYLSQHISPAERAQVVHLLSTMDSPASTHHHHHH
modifications: one acetylation observed by mass spectrometry (position not given)
notes: The entries describe its self-association into the homodimer (two copies of this chain); Expressed in Sf9 insect cells; In the crystal it is in complex with acetyl-CoA, a small molecule; also called carboxyltransferase domain of ACC2; ID No. 3
binding result: binds
